The source of these data is article PMC3407131, “Annexin A2 Is a Natural Extrahepatic Inhibitor of the PCSK9-Induced LDL Receptor Degradation” (PLoS ONE, 2012).

In this assay the target is T1, biotin-labeled human PCSK9 protein (residues 30–692) (human, UniProt Q8NBP7 30-692, biotin-labeled (site not stated)).
T1 construct: PCSK9, human, residues 30–692; written as one chain; Held on streptavidin donor beads by the biotin; also called biotinylated PCSK9; full length PCSK9; source: baculovirus expression, purified recombinant
Description: AlphaScreen or HTRF; competition: biotin-PCSK9 (15 nM) and His-LDLR ectodomain (15 nM) mixed with increasing AnxA2 peptide, 60 min at 20°C in 25 mM Hepes pH 7.4, 100 mM NaCl, 0.5 mM CaCl2, 0.1% BSA; streptavidin donor and nickel chelate acceptor beads, overnight at 20°C. As to conditions: both partners purified. In general terms: Alpha assays give light when donor and acceptor beads are brought close together.

T1 sequence (Q8NBP7 30-692): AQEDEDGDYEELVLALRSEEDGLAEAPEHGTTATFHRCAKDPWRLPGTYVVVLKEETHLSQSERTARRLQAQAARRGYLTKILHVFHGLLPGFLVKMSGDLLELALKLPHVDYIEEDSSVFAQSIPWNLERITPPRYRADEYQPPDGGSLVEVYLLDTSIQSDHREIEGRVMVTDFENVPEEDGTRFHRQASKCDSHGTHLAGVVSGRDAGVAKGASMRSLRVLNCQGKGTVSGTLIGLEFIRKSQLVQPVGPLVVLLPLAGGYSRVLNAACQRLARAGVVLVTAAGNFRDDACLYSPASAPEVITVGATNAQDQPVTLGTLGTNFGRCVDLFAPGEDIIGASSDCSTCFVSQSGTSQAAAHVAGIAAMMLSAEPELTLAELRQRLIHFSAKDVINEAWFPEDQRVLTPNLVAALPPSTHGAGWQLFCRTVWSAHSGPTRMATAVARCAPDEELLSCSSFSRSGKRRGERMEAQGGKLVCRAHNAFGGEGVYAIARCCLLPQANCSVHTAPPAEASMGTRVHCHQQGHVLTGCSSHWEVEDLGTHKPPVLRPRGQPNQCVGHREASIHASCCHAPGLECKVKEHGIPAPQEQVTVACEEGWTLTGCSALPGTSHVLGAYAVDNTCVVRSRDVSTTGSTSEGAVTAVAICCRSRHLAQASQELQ

B1: 73 aa peptide corresponding to the AnxA2 R1 domain (residues 25–97) (peptide, UniProt P07355 25-97, looked up)
peptide: GSVKAYTNFDAERDALNIETAIKTKGVDEVTIVNILTNRSNAQRQDIAFAYQRRTKKELASALKSALSGHLET
modifications: N-terminus acetylated; C-terminal amide
notes: annexin A2 (AnxA2), residues 25–97 of the R1 domain; also called 73-mer AnxA2 peptide (aa 25–97); long peptide form; source: synthetic peptide (solid phase synthesis, RP-HPLC purified)
In general, IC50 refers to the concentration that inhibits the measured activity by half. Low readings indicate greater potency in that assay, high ones weaker potency in that assay. In the case of B1, the IC50 was around 600 nM.

B2: intermediate 49 aa AnxA2 peptide (residues 49–97) (peptide, UniProt P07355 49-97, looked up)
peptide: Ac-KGVDEVTIVNILTNRSNAQRQDIAFAYQRRTKKELASALKSALSGHLET-NH2
notes: annexin A2 (AnxA2), residues 49–97 of the R1 domain; also called intermediate length peptide (49–97); aa 49–97 peptide; source: synthetic peptide (solid phase synthesis, RP-HPLC purified)
On to B2, for which the “fold lower apparent potency than the peptide 25–97” value was around 20 fold.
